Ends that are not written are not given here.
How the values were obtained:
GLP-1R in pancreas = biological target: T1, GLP-1R in pancreas (Mus musculus, UniProt O35659); assay: Dynamic PET/CT imaging of ^64Cu-labeled peptides in normal mice
T1 sequence (O35659 22-463): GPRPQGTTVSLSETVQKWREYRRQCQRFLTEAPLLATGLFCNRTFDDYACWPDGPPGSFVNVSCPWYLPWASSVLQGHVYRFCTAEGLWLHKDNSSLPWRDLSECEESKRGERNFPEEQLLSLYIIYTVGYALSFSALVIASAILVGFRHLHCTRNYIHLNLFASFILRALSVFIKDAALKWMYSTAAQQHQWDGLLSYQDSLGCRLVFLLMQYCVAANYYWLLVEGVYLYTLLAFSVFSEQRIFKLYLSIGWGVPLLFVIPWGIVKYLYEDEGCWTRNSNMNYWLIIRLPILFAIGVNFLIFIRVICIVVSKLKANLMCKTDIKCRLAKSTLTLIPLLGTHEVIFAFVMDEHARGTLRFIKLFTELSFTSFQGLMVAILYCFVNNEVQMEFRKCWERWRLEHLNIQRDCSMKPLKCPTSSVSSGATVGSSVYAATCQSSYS
Procedure: Dynamic PET/CT scans were performed on a Siemens Inveon PET-CT multimodality system using normal male BABL/c mice (n=3 per peptide). Post-PET biodistribution was performed to verify the imaging findings.
In addition, D-Ala^8 was also introduced to prevent the degradation by DPP-IV.
FIG. 9 are graphs that show a comparison of contrast in pancreatic, liver and kidney microPET scans. […] Quantitative analysis based on microPET/CT 0-60 min dynamic scans, animal model: Normal BABL/c mice at 6-8 wks.

in vivo = assay: in vivo; parameters: species or system Sprague-Dawley rats; settings: Sprague-Dawley, rat, iv, total radioactivity
Procedure: Given this encouraging in vitro result, the tissue distribution of both conjugates in normal Sprague-Dawley rats was examined. […] The radiolabeled compounds were diluted with saline and be injected into rats (n=4 at each time point) via the tail vein. The animal number at each time point was chosen for statistical analysis. […] At the selected post-injection time points, animals were sacrificed, and organs of interest removed, weighed, and counted. The percent injected dose per gram (% ID/g) and percent injected dose per organ (% ID/organ) was calculated by comparison to a weighed, counted standard. Pharmacokinetic parameters were estimated by using either one- or two-compartment model.

GLP-1R [1] = biological target: T2, GLP-1R (Homo sapiens, UniProt P43220); assay: cAMP accumulation in HEK293 cells stably expressing GLP-1R-GFP; type: cell-based; parameters: GFP; expressed in transfected cells; host or cells: HEK293
Excerpt: In all cases, reactions were stopped with 1.2 M trichloroacetic acid and cAMP was isolated by the two column chromatographic method.
Target sequence in this assay (P43220 24-463): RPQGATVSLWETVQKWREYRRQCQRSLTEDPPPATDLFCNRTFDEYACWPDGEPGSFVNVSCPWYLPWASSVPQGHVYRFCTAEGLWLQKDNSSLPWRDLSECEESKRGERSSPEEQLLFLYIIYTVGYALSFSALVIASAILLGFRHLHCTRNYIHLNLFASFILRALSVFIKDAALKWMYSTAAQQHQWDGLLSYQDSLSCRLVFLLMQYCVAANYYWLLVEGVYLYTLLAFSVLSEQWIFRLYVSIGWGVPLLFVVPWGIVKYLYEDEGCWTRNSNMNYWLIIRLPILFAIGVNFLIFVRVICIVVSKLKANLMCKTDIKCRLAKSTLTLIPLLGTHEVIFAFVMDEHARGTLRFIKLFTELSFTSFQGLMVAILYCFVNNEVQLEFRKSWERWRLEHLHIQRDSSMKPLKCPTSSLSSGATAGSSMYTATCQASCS

GLP-1R [2] = biological target: T2, GLP-1R; settings: DPP-IV degradation fragment; cited from earlier work
Target sequence in this assay (P43220 24-463, species assumed): as the sequence (P43220 24-463) above

[3] = Tissue distribution of ^125I-labeled peptide in normal Sprague-Dawley rats; type: in vivo
Excerpt: (§1) This presumably resulted from the degradation of the peptide by DPP-IV since it has Ala at position 8. In order to overcome this problem, we have replaced the L-Ala with a D-Ala. Furthermore, due to high stomach uptake likely resulting from in vivo de-iodination of the ^125I-labeled peptide, a conventional metal chelator. […] The purified conjugates were labeled with either ^64Cu or ^111In in high radiochemical yields.

GLP-1R [4] = biological target: T2, GLP-1R; assay: cAMP formation by radioimmunoassay in transfected HEK293 cells; type: cell-based; parameters: expressed in transfected cells; host or cells: HEK293; settings: compared with GLP-1
Procedure: Twelve cyclic GLP-1 analogues containing lactam bridges in various regions (from the N- to C-terminal regions) were designed and synthesized. The cyclic peptides were prepared by following standard solid-phase peptide synthesis protocol with N-Fmoc/^tBu protecting group strategy. The side chains of a lysine and a glutamic acid that would form a lactam bridge were protected with allyl groups which were selectively removed by using Pd^0 catalyst and an allyl scavenger like N,N-dimethylbarbituric acid (29). The released free amine and carboxylic acid were coupled on resin using HBTU or BOP to form a cyclic peptide. […] In addition, cAMP formation by the peptides was determined by radioimmunoassay using the transfected HEK293 cells to examine agonistic activity. […] (SEQ ID No: 5) and […] R (SEQ ID No: 6).
Target sequence in this assay (P43220 24-463): as above

[5] = tested on: freshly isolated rat islets; assay: Displacement binding assay of ^125I-labeled peptide on isolated islets; settings: ^125I-labeled (at Tyr^19)
Excerpt: as §1

## CC[C@H](C)[C@H](NC(=O)[C@H](Cc1ccccc1)NC(=O)[C@H](CCC(=O)O)NC(=O)[C@H](CCCCN)NC(=O)[C@H](C)NC(=O)[C@H](C)NC(=O)[C@H](CCC(N)=O)NC(=O)CNC(=O)[C@H](CCC(=O)O)NC(=O)[C@H](CC(C)C)NC(=O)[C@H](Cc1ccc(O)cc1)NC(=O)[C@H](CO)NC(=O)[C@H](CO)NC(=O)[C@@H](NC(=O)[C@H](CC(=O)O)NC(=O)[C@H](CO)NC(=O)[C@@H](NC(=O)[C@H](Cc1ccccc1)NC(=O)[C@@H](NC(=O)CNC(=O)[C@H](CCC(=O)O)NC(=O)[C@@H](C)NC(=O)[C@@H](N)Cc1c[nH]cn1)[C@@H](C)O)[C@@H](C)O)C(C)C)C(=O)N[C@@H](C)C(=O)N[C@@H](Cc1c[nH]c2ccccc12)C(=O)N[C@@H](CC(C)C)C(=O)N[C@H](C(=O)N[C@@H](CCCCN)C(=O)NCC(=O)N[C@@H](CCCNC(=N)N)C(=O)NCCCCCC(=O)N[C@@H](CSC1CC(=O)N(CCNC(=O)CN2CCN(CC(=O)O)CCN(CC(=O)O)CCN(CC(=O)O)CC2)C1=O)C(N)=O)C(C)C (stereo partly drawn) (64Cu complex, metal not drawn) [D-GLP-1, [D-Ala^8]GLP-1-Ahx-Cys]
GLP-1R in pancreas; mouse, in vivo
  clearance from the pancreas: < 10 min
In vivo; % ID/g blood
  tissue uptake at 20 min: 0.91 ± 0.39 %ID/g
  tissue uptake at 1 h: 0.41 ± 0.07 %ID/g
  tissue uptake at 4 h: 0.45 ± 0.02 %ID/g
  tissue uptake at 24 h: 0.14 ± 0.08 %ID/g
In vivo; % ID/g fat
  tissue uptake at 20 min: 0.44 ± 0.6 %ID/g
  tissue uptake at 1 h: 0.28 ± 0.4 %ID/g
  tissue uptake at 4 h: 0.96 ± 0.88 %ID/g
  tissue uptake at 24 h: 0.78 ± 0.14 %ID/g
In vivo; % ID/g heart
  tissue uptake at 20 min: 0.64 ± 0.16 %ID/g
  tissue uptake at 1 h: 0.46 ± 0.21 %ID/g
  tissue uptake at 4 h: 0.15 ± 0.09 %ID/g
  tissue uptake at 24 h: 0.04 ± 0.05 %ID/g
In vivo; % ID/g kidney
  tissue uptake at 20 min: 19.6 ± 0.91 %ID/g
  tissue uptake at 1 h: 28.2 ± 5.83 %ID/g
  tissue uptake at 4 h: 30.7 ± 9.53 %ID/g
  tissue uptake at 24 h: 46.1 ± 10.9 %ID/g
In vivo; % ID/g large int
  tissue uptake at 20 min: 0.45 ± 0.2 %ID/g
  tissue uptake at 1 h: 0.67 ± 0.7 %ID/g
  tissue uptake at 4 h: 0.77 ± 0.18 %ID/g
  tissue uptake at 24 h: 2.01 ± 0.02 %ID/g
In vivo; % ID/g liver
  tissue uptake at 20 min: 2.69 ± 1.16 %ID/g
  tissue uptake at 1 h: 1.17 ± 0.45 %ID/g
  tissue uptake at 4 h: 1.56 ± 0.14 %ID/g
  tissue uptake at 24 h: 2.26 ± 0.16 %ID/g
In vivo; % ID/g lung
  tissue uptake at 20 min: 4.03 ± 1.64 %ID/g
  tissue uptake at 1 h: 0.91 ± 0.12 %ID/g
  tissue uptake at 4 h: 0.77 ± 0.18 %ID/g
  tissue uptake at 24 h: 1.21 ± 0.3 %ID/g
In vivo; % ID/g muscle
  tissue uptake at 20 min: 0.3 ± 0.15 %ID/g
  tissue uptake at 1 h: 0.63 ± 0.05 %ID/g
  tissue uptake at 4 h: 0.11 ± 0.13 %ID/g
  tissue uptake at 24 h: 0.39 ± 0.29 %ID/g
In vivo; % ID/g pancreas
  tissue uptake at 20 min: 3.58 ± 0.56 %ID/g
  tissue uptake at 1 h: 2.19 ± 0.98 %ID/g
  tissue uptake at 4 h: 1.18 ± 0.12 %ID/g
  tissue uptake at 24 h: 0.99 ± 0.05 %ID/g
In vivo; % ID/g small int
  tissue uptake at 20 min: 1.07 ± 0.73 %ID/g
  tissue uptake at 1 h: 1.02 ± 0.75 %ID/g
  tissue uptake at 4 h: 0.5 ± 0.25 %ID/g
  tissue uptake at 24 h: 0.91 ± 0.31 %ID/g
In vivo; % ID/g spleen
  tissue uptake at 20 min: 0.22 ± 0.05 %ID/g
  tissue uptake at 1 h: 0.23 ± 0.05 %ID/g
  tissue uptake at 4 h: 0.26 ± 0.2 %ID/g
  tissue uptake at 24 h: 0.52 ± 0.18 %ID/g
In vivo; % ID/g stomach
  tissue uptake at 20 min: 1.02 ± 0.51 %ID/g
  tissue uptake at 1 h: 0.49 ± 0.31 %ID/g
  tissue uptake at 4 h: 0.23 ± 0.07 %ID/g
  tissue uptake at 24 h: 0.25 ± 0.17 %ID/g

## CC[C@H](C)[C@H](NC(=O)[C@H](Cc1ccccc1)NC(=O)[C@H](CCC(=O)O)NC(=O)[C@H](CCCCN)NC(=O)[C@H](C)NC(=O)[C@H](C)NC(=O)[C@H](CCC(N)=O)NC(=O)[C@@H]1CCCCNC(=O)CC[C@H](NC(=O)[C@H](CO)NC(=O)[C@@H](NC(=O)[C@H](CC(=O)O)NC(=O)[C@H](CO)NC(=O)[C@@H](NC(=O)[C@H](Cc2ccccc2)NC(=O)[C@@H](NC(=O)CNC(=O)[C@H](CCC(=O)O)NC(=O)[C@@H](C)NC(=O)[C@@H](N)Cc2c[nH]cn2)[C@@H](C)O)[C@@H](C)O)C(C)C)C(=O)N[C@@H](Cc2ccc(O)cc2)C(=O)N[C@@H](CC(C)C)C(=O)N[C@@H](CCC(=O)O)C(=O)N1)C(=O)N[C@H]1CCC(=O)NCCCC[C@@H](C(=O)NCC(=O)N[C@@H](CCCNC(=N)N)C(=O)NCCCCCC(=O)N[C@@H](CSC2CC(=O)N(CCNC(=O)CN3CCN(CC(=O)O)CCN(CC(=O)O)CCN(CC(=O)O)CC3)C2=O)C(N)=O)NC(=O)[C@H](C(C)C)NC(=O)[C@H](CC(C)C)NC(=O)[C@H](Cc2c[nH]c3ccccc23)NC1=O (stereo partly drawn) [EM2198, HXEGTFTSDVSEYLEKQAAKEFIEWLVKGR, wherein X is D-Ala]
GLP-1R [1]
  EC50: ~1 nM
GLP-1R in pancreas; ^64Cu labeled, normal mice, dynamic PET-CT
  pancreatic retention: > 30 min

## GLP-1(9-36) amide
GLP-1R [2]
  receptor affinity and biological activity: lost receptor affinity and biological activity nearly completely

## HAEGTFTSDESSYKEGQAAKEFIAWLVKGR (lactam (positions not given here); ends not checked; also: lactam bridge, positions not given here) [SEQ ID No: 5, cyclic GLP-1 analogue with a lactam bridge]
[3]
  accumulation in kidneys and stomach: high accumulation in kidneys and stomach
  pancreas uptake: no significant pancreas uptake
GLP-1R [4]
  receptor activation (cAMP formation): comparable or improved
[5]
  specific binding to isolated islets: appreciable specific binding

## HAEGTFTSDVSSYLEGQAAKEFIEWLVKG R (chain 1 HAEGTFTSDVSSYLEGQAAKEFIEWLVKGR; chain 2 HAEGTFTSDVSSYLEGQAAKEFIEWLVKGR; lactam (positions not given here); ends not checked; also: lactam bridge, positions not given here) [SEQ ID No: 6, cyclic GLP-1 analogue with a lactam bridge]
GLP-1R [4]
  receptor activation (cAMP formation): comparable or improved
